{"source": "paper doi:10.1101/2021.05.24.445519", "about": "(bioRxiv, 2021)", "target": "the molecule itself", "assay": "crystal structure"}
{"protein": "alanine:glyoxylate aminotransferase 1, minor allele (AGT-Mi), purified recombinant (enzyme, human) MASHKLLVTPLKALLKPLSIPNQLLLGPGPSNLPPRIMAAGGLQMIGSMSKDMYQIMDEIKEGIQYVFQTRNPLTLVISGSGHCALEAALVNVLEPGDSFLVGANGIWGQRAVDIGERIGARVHPMTKDPGGHYTLQEVEEGLAQHKPVLLFLTHGESSTGVLQPLDGFGELCHRYKCLLLVDSVASLGGTPLYMDRQGIDILYSGSQKALNAPPGTSLISFSDKAKKKMYSRKTKPFSFYLDIKWLANFWGCDDQPRMYHHTIPVISLYSLRESLALIAEQGLENSWRQHREAAAYLHGRLQALGLQLFVKDPALRLPTVTTVAVPAGYDWRDIVSYVMDHFDIEIMGGLGPSTGKVLRIGLLGCNATRENVDRVTEALRAALQHCPKKKL", "values": [{"measurement": "binding result", "value": "binds"}]}
